Laboratory results from the supplement of paper PMC9170038.

Experiments:
MS2 coat protein [1] = assay: apparent KD of MS2 coat protein, switch OFF state (with FMN for OFF switches, without FMN for ON switches); designed switch direction (-1 OFF switch, 1 ON switch): -1; higher = weaker reporter binding; settings: FMN input: 0 or 200 uM; Eterna round: R93 (includes R88 designs)
In short: (§1)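 In 100 mM Tris-HCl pH 7.5 with 80 mM KCl and 4 mM MgCl2, and without or with constant ligand, SNAP-549-labelled MS2 coat protein was titrated in twofold steps from 0.7 or 1.5 nM to 3 µM. Per-step times went from 0.8–1.5 h down to 10–20 min. The RNA switches were transcribed on-chip from Illumina sequencing clusters, and apparent KD is the per-design median of normalised cluster binding-curve fits.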

MS2 coat protein [2] = assay: apparent KD of MS2 coat protein, switch ON state; designed switch direction (-1 OFF switch, 1 ON switch): -1; higher = weaker reporter binding; settings: FMN input: 0 or 200 uM; Eterna round: R93 (includes R88 designs)
In short: as §1

MS2 coat protein [3] = assay: apparent KD of MS2 coat protein; designed switch direction (-1 OFF switch, 1 ON switch): 1; higher = weaker reporter binding
In short: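 Designed RNA switches sharing common flanks were transcribed on Illumina chips by stalled E. coli RNA polymerase. They were titrated with SNAP-549-labelled MS2 coat protein, from 0.7 or 1.5 nM doubling to 3 µM, in Tris-HCl pH 7.5 buffer with KCl, MgCl2, BSA, DTT, tRNA and Tween-20. Titrations ran without input, with 200 uM small-molecule ligand, or with an oligonucleotide input. The apparent KD of each design is the median over its clusters, after curve-fitting of normalised cluster fluorescence.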

[4] = input ligand: microRNA oligo, concentration not stated

Sequence	apparent KD of MS2 coat protein (MS2 coat protein [1])	apparent KD of MS2 coat protein (MS2 coat protein [2])	also measured
GGUUGUGGAGGAUAUACAUGAGGAUCACCCAUGUGAGAGAAAAAAGUGAGAAAGAAAAGUAGAAGGUCGUGACG [salish99-ex3-69]	0.034 µM	0.0368 µM	–
AAAAACAGAGGAUAUACAUGAGGAUCACCCAUGUAAAAAUGUAGAAGGCUGAAAAAAAAAAGAAGGAAAAAAAA [Meechl Ex3 R2 m0]	0.0232 µM	0.0216 µM	–
AGAAAACAUGAGGAUCACCCAUGUCAGGAUAUGUAAAAGAAAAGAAAAGAAAGAAGAAACAGAAGGGACAAGAA [Seth-Peribsen]	0.0537 µM	0.0569 µM	–
AACAGUACAGGAUAUACAUGAGGAUCACCCAUGUGAAAAUUAAGUGGAGAACCACAAGGUAGAAGGGUACUGGA [Mat - Exclusion 3 - Eli mod - D62]	0.127 µM	0.0424 µM	–
AAAAAGUGAGGAUAUUCGGAUAGGAAAACGAAAACCUAUCCGAAGAAGGCACAUGAGGAUCACCCAUGUGGAAA [67% Ecls-II - Early G + late G segment 2]	0.0276 µM	0.0226 µM	–
AGAAAACAUGAGGAUCACCCAUGUGAGGAUAUGAAAAAGAAAAGAAAAGAAAGAAGAAUCAGAAGGCACAAGAA [Weneg]	0.0298 µM	0.0286 µM	–
GUGUACAGAGGAUAUACAUAAGCUAGGAAACUAGCAAGAUCACAUGAGGAUCACCCAUGUAGAAGGCUGUACAC [Ex2: 739]	0.327 µM	0.27 µM	–
AGGGAGUAAGGAUAUGAGAAAGAAAAAGAAGGAAAAAAAGAUCAGAAGGUACAUGAGGAUCACCCAUGUAAAAA [milkweed 9]	0.026 µM	0.0356 µM	–
AGCUAGUCAGGAUAUACGAACAUGUCAAAAGACGUAAGGGAACAUGAGGAUCACCCAUGUAGAAGGGACUCGCA [Diamond 51]	0.0985 µM	0.0613 µM	–
CUCAAGUUAGGAUAUCGAAGAAAAGAAGAGAAAGAAAAGAACGAGAAGGAACAUGAGGAUCACCCAUGUAAGAA [EteRNA is fun!]	0.0217 µM	0.0118 µM	–
GGAAAACAUGAGGAUCACCCAUGUGAGGAUAUCGAUGUCCAAAAAAAAGUGCGGGACUCGAGAAGGCACUUGGA [salish99-ex1-31]	0.0325 µM	0.0482 µM	–
AAGAAGUGAGGAUAUACAUGAAAGAAAGAAAAGAAAAGAAAACAUGAGGAUCACCCAUGUAGAAGGCACAAGAA [EteRNA is fun!]	0.0276 µM	0.0287 µM	–
GAAAAGUGAGGAUAUUCGGAUAGGAAAACGAAAACCUAUCCGAAGAAGGCACAUGAGGAUCACCCAUGUGAAAA [Mat - Exaclusion 4 - Eli mod - D44]	0.0268 µM	0.0224 µM	–
AAACCACAUGAGGAUCACCCAUGUGAGGAUAUGAACGAAAUAAAAUAAAAAAUAAAGUUCAGAAGGCACAAAAA [Mat - Exclusion 1 - Eli mod - D15]	0.0229 µM	0.0176 µM	–
AAAAAGAGAGGAUAUGCAGGAGAAAAAAAAAAAAAAAAAAAACAUGAGGAUCACCCAUGUAGAAGGCUCAAAAA [Ecls2-II]	0.0157 µM	0.0284 µM	–
AAAUUGUCAGGAUAUCCUAUAAUAAUAAAAUAGAGGAGAUAGGAGAAGGGACAUGAGGAUCACCCAUGUAAAAC [May 85]	0.0312 µM	0.0377 µM	–
AAAACACAUGAGGAUCACCCAUGUGAGGAUAUGCUAUGGAAAAUAAAAAUAAAACAUAGCAGAAGGCACAAAAA [Denovo 12]	0.0323 µM	0.0203 µM	–
CAGUACUGAGGAUAUACAUGAGGAUCACCCAUGUAUCCAAGCUAGGAAACUAGCAAAAGUAGAAGGCAGUACUG [Ex3: 820]	0.0655 µM	0.0132 µM	–
AACUGACAUGAGGAUCACCCAUGUCAGGAUAUGAUAUGUAAAAAAUAAAAAAUACUUAUCAGAAGGGACAUGAA [Design 43: Sub-opt C]	0.0144 µM	0.0158 µM	–
CGAAUGUAAGGAUAUAGCCACAUUACGAAUAAGUAGUGUGGCUAGAAGGUACAUGAGGAUCACCCAUGUAUGGG [Exclusion 4.5 (AU closing FMN)]	0.0517 µM	0.181 µM	–

Sequence	apparent KD of MS2 coat protein (MS2 coat protein [1])	apparent KD of MS2 coat protein (MS2 coat protein [2])	also measured
CUCUUGUCAGGAUAUGUAAGAAAAGAAAAGAAAGAAAAGAAACAGAAGGGACAUGAGGAUCACCCAUGUAAGAA [EteRNA is fun!]	0.0531 µM	0.0789 µM	–
AACAUGUAAGGAUAUCUAAGAAAAGAAAAGAAAGAAAAGAAAGAGAAGGUACAUGAGGAUCACCCAUGUAAGAA [EteRNA is fun!]	0.0183 µM	0.0327 µM	–
AGAAUACAUGAGGAUCACCCAUGUGAGGAUAUGCAGAUAAAAAUAAAAUAAAAUAAAUGCAGAAGGCACGAAAG [EX 1 May 21]	0.0861 µM	0.0371 µM	–
GAUAAACAUGAGGAUCACCCAUGUAAGGAUAUGCGCUAACUAACUAACUAACUAACUAGCAGAAGGUACACUAC [The End]	0.0265 µM	0.0244 µM	–
AGCUAGUCAGGAUAUACAAAAUGAUUGCGAAAGCAAUCAACACAUGAGGAUCACCCAUGUAGAAGGGACUAGCA [Mat - Exclusion 2 - JL-Eli mod - D43]	0.0211 µM	0.0185 µM	–
AAAGGGUCAGGAUAUGCACGAACAACAAAACAAAUAACGAUGCAGAAGGGACAUGAGGAUCACCCAUGUAUAAA [May 75]	0.0521 µM	0.0334 µM	–
AAGGGACAUGAGGAUCACCCAUGUCAGGAUAUGAUGCGAAUAAAGAAAGAAGAAAGCAUCAGAAGGGACAAAAA [58%, Disencluded 3, 3]	0.0576 µM	0.0337 µM	–
AAAUGACUAGGAUAUACAUGAGGAUCACCCAUGUGUAUAAAUAAAUACACAAAAGAAAGUAGAAGGAGUCAAAA [Ex 3 May 14]	0.0882 µM	0.0158 µM	–
GAAGAACAUGAGGAUCACCCAUGUCAGGAUAUGCGGAAGGGAAUAAUAACUUCCGGAAGCAGAAGGGACAAGAA [Ex 1 May 49]	0.06 µM	0.0323 µM	–
AAAAAACAUGAGGAUCACCCAUGUAAGGAUAUGUAAAAUAAAAGAAAAAUAAAGAAAAGCAGAAGGUACAAGAA [JL wbt mod 18]	0.0234 µM	0.0371 µM	–
GCUUGGGAAGGAUAUACAUGAGGAUCACCCAUGUGAGAGAAAAAAGUGAGAAAGAAAAGUAGAAGGUCUUGAGG [salish99-ex3-84]	0.0694 µM	0.0695 µM	–
AAGUUGGUAGGAUAUACGUGCAAUUGGUGUGUCCGGAAAAAACAUGAGGAUCACCCAUGUAGAAGGACCAAAAA [Quonmabi]	0.0363 µM	0.0475 µM	–
UUAUUAAUUACAUGAGGAUCACCCAUGUUUUUAUGUCAGAGACAGGAUAUAGAAGUCUCGUUUUACUAGAAGGGUCAUUAUAAG [JR_SSNG3_Sub015] (Eterna round: R96, puzzle: Same State NG 3)	–	–	apparent KD of MS2 coat protein (MS2 coat protein [3]; input ligand: FMN 200 uM): 0.0186 µM; apparent KD of MS2 coat protein (MS2 coat protein [3]; [4]): 0.0164 µM; apparent KD of MS2 coat protein (MS2 coat protein [3]; input ligand: none): 0.0192 µM
AAUAGUUGCGGGCAGGAUAUGUAUUAAAAUACAUGAGGAUCACCCAUGUGCGGGUAUAACACCCGACAGAAGGGCCAAUCGCGAC [Mat - Same State 2 - Mod of UCT - D94] (puzzle: Same State 2)	–	–	apparent KD of MS2 coat protein (MS2 coat protein [3]; Eterna round: R95, input ligand: FMN 200 uM): 0.0257 µM; apparent KD of MS2 coat protein (MS2 coat protein [3]; Eterna round: R95, input ligand: microRNA oligo, concentration not stated): 0.216 µM; apparent KD of MS2 coat protein (MS2 coat protein [3]; Eterna round: R95, input ligand: none): 0.233 µM
CCGAUUUAUGGAGGAUAUGGAGCCUUAUUGGCUCCAGAAGGUCAAUAACAUGAGGAUCACCCAUGUACGGCGGUCAAUAGACCG [Eli NG1ss - 70] (Eterna round: R96, puzzle: Same State NG 1)	–	–	apparent KD of MS2 coat protein (MS2 coat protein [3]; input ligand: FMN 200 uM): 0.0248 µM; apparent KD of MS2 coat protein (MS2 coat protein [3]; [4]): 0.0281 µM; apparent KD of MS2 coat protein (MS2 coat protein [3]; input ligand: none): 0.0346 µM
AAAGGAUGAUUAUACAUGAGGAUCACCCAUGUUUGUAAUACUAAGGAUAUGUGACUUAAUUGUGAACAGAAGGUAGGUUCAUGA [AK SSNG3-V2-1] (Eterna round: R96, puzzle: Same State NG 3)	–	–	apparent KD of MS2 coat protein (MS2 coat protein [3]; input ligand: FMN 200 uM): 0.0568 µM; apparent KD of MS2 coat protein (MS2 coat protein [3]; [4]): 0.0436 µM; apparent KD of MS2 coat protein (MS2 coat protein [3]; input ligand: none): 0.0622 µM
UUGAAGAAUAUAGGAUAUUGAAUACAUAUGUUUAACAUGAGGAUCACCCAUGUGGGUUGCGGUAUCGAGAAGGAUAAAUAAAAG [Mat - Same State NG 2 - JL mod - D14] (Eterna round: R96, puzzle: Same State NG 2)	–	–	apparent KD of MS2 coat protein (MS2 coat protein [3]; input ligand: FMN 200 uM): 0.203 µM; apparent KD of MS2 coat protein (MS2 coat protein [3]; [4]): 0.162 µM; apparent KD of MS2 coat protein (MS2 coat protein [3]; input ligand: none): 0.181 µM
GGUAAGAACUAAGGAUAUUGAAUACAUAUGUUUAACAUGAGGAUCACCCAUGUGGGUUGCGGUGUCGAGAAGGUAGAAUAAUAG [Mat - same State NG 2 - JL mod - D102] (Eterna round: R96, puzzle: Same State NG 2)	–	–	apparent KD of MS2 coat protein (MS2 coat protein [3]; input ligand: FMN 200 uM): 0.204 µM; apparent KD of MS2 coat protein (MS2 coat protein [3]; [4]): 0.166 µM; apparent KD of MS2 coat protein (MS2 coat protein [3]; input ligand: none): 0.193 µM
CGUUCUUACUCAGGACGGAGAGUAGAGGAACAUGAGGAUCACCCAUGUAUGAGCUUUUUGCUCGUGAUUAACAGUAG [JR_SHM208a_Sub013] (Eterna round: R96, puzzle: Sensor for hsa-mir-208a)	–	–	apparent KD of MS2 coat protein (MS2 coat protein [3]; input ligand: FMN 200 uM): 0.103 µM; apparent KD of MS2 coat protein (MS2 coat protein [3]; [4]): 0.0555 µM; apparent KD of MS2 coat protein (MS2 coat protein [3]; input ligand: none): 0.0868 µM
